B1: TPR t1 (parent)
chain: GACCAAUCUGCCCUCAGAGCUCGAGAACAUCUUCGGAUGCAGAGGAGGCAGGCUUCGGUGGCGCGAUAGCGCCAACGUCCUCAACCUCCAAUGCAUCCCACCACAUGAUGAUGCCUGAAGAGCCUUGGUUUUUUG

Variants of: B1
Experiment: polymerase ribozyme fitness, log enrichment relative to wild type (log ratio); higher = more active; in vitro selection for triplet polymerase activity
Method in brief: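 Libraries of mutants in each subunit of a heterodimeric triplet polymerase ribozyme were generated by PCR and transcribed. In triplicate, each went through one in vitro selection round: annealing with biotinylated primer, partner subunit and triplets; frozen incubation at −7 °C; gel excision of extended constructs; streptavidin-bead capture; RT-PCR. Fitness, taken from Illumina sequencing of input and output libraries, is the logarithm of a genotype's enrichment over wild-type enrichment, averaged across replicates with inverse-variance weights. The logarithm is base 2, and genotypes needed ≥10 input reads and ≥1 read per output to be kept.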

Row | Variant | polymerase ribozyme fitness (log ratio)
1 | C49G U78G U112A | -0.0739
2 | C82A U112A U131A | 1.09
3 | G10U C72U | -0.415
4 | C20G C72U | -4.16
5 | C12U G51C C79U | -2.71
6 | C53G G117C | -3.47
7 | G45A C53G G61A C79U C98U | -3.8
8 | A16G U92C C102A | -5.14
9 | C40U U59A U116A | -4.02
10 | C12G A37C G60C A83U A91C G120U | -0.68
11 | C8G C12G U55G G61U G71A | -6.64
12 | G39U G113C | -2.84
13 | U7C C49A G61U A83C U129C | -0.315
14 | C13A G48A G61A U106A A118G | -2.04
15 | G51U G52C C80U | -3.13
16 | A29U U81C C124A | -0.606
17 | A50C U116C | -1.32
18 | C20U C72A A119U | -1.58
19 | A43U G52U A68G C124U | -5.64
20 | U32C C56U C72U A111U | -3.66
21 | G36U U106A | -1.6
22 | C34U A84G C89G | -6.47
23 | C8U G23C C34U G61A G93A U109C | -6.59
24 | A18G U87G U109A | -2.3

Row | Variant | polymerase ribozyme fitness (log ratio)
25 | G71U C79U | -0.201
26 | C12G G61U G120U | 2.2
27 | G45U C62U U112G U126A G128A U130A | -3.11
28 | C13U A75G C76G U133A | -0.431
29 | C15U A43U G69U C88U A91C G120C | 0.39
30 | A74C G120C | 1.48
31 | G39A U96C | -0.886
32 | C64U A74C A90C C101G | -4.26
33 | A50U C124A | 0.575
34 | A83C C115G | -1.92
35 | G71A C101U | -0.59
36 | C15A U106C | -2.44
37 | G63A A66C | -2.96
38 | A6C C8A U87A | 0.391
39 | A2U G23C G39A A50U G61C A91C G93C A111U | -6
40 | G69A C98U | -3.52
41 | G51C C73G | -4.22
42 | C89U C97U | -0.579
43 | C76A C115U | -2.9
44 | U30A G39U C101A A111U A119G C123G | -6.64
45 | A91C C114U | -3.62
46 | G120U U129G | -1.17
47 | C8G C28A | -3.24
48 | G69C U133A | -1.62

Row | Variant | polymerase ribozyme fitness (log ratio)
49 | C53A U55A C88U C89U | -0.643
50 | G10C G47U C89U | -5.13
51 | U7G G39A C62G C114G | -6.04
52 | A41G C56A C102U | -3.9
53 | G10U G44C C88U A105G G120C | -3.52
54 | U7A C13U G71A C115U G128A | -2.21
55 | C11U G52A A118G | -0.222
56 | C49U G60U | -0.405
57 | A111U U112G G122A | -2.25
58 | G47A U54A A90G U131G | -0.834
59 | C31G G39A G107C U133G | -2.1
60 | G17A A43G G47U G120C G135C | -2.39
61 | A41C C70U C85U | -2.92
62 | G120C U130A | 0.0796
63 | G10A A26C G36U G45C G51U C70U C79A C98U C123U G127U | -8.21
64 | G42C G47U | -4.02
65 | C34A G45U | -4.49
66 | G19U G45C A91C A111C | -3.35
67 | A41U C101G | -3.73
68 | C3G C86A | -3.1
69 | C12A G48A U55C G57U U59G C85U | -3.61
70 | C8G C20G G44U | -4.75
71 | C73U C85G | -2.85
72 | A5G G51A C86G | -2.82

Row | Variant | polymerase ribozyme fitness (log ratio)
73 | U55A C56G C89U C124A | 0.651
74 | A50U G61C G113U | -5.56
75 | C13G C40A U133A | -2.76
76 | C62G U131A | -1.42
77 | G42U G61A | -1.21
78 | G45U C104A G110U A118C | -5.08
79 | U78G C97A | -2.84
80 | C62G G117A U129G | -6
81 | C12U A83C G93A | -0.192
82 | U7A A105U C115U | -3.4
83 | C62U C82U | 1.12
84 | C53U C99U | -2.93
85 | G39A C70G U112G | -4.63
86 | G35A C99A C123A | -6.8
87 | G35A A108U G120C | -5.76
88 | G17A C40U G60A C79G | -6.54
89 | C56G C114U | -2.55
90 | U87A C89G | -2.18
91 | C11U C123U | 1.77
92 | G93C C99U | -3.93
93 | U7G C8A | 0.287
94 | G47C C101A | -2.59
95 | C31G C88A G110U C115A | -7.42
96 | U14G G61U | -1.11

Row | Variant | polymerase ribozyme fitness (log ratio)
97 | A74G C123U | 1.13
98 | C12U G44U C72G G127A G128C | -4.51
99 | A6G A16G G17U A18G G47A G61U | -3.02
100 | G77A U81A | -1.01
101 | C3U C40G C115A | -1.95
102 | C49A C79U C114U G120U | -4.69
103 | C28A U54A G71U G110U | 1.85
104 | C11A G42C C72A | -1.79
105 | C70U U109A | -4.47
106 | A16G A27G U32C A50G | -4.47
107 | G17C G120A | -3.31
108 | C11U A41G U78G C97U | -1.63
109 | G71C A90C | -3.67
110 | U54A U59G | -0.218
111 | C72A A121C | 1.46
112 | C12A G36U | -1.6
113 | C53G C72A C82G | -0.867
114 | G39C C62A | -0.902
115 | G45U C97A U112A | -5.81
116 | A26G G71C C79G | -3.86
117 | C86A C124A | 1.35
118 | A2G A91U | -1.93
119 | G61U U96C | 0.151
120 | U59G U109G G120U | -4.53

Row | Variant | polymerase ribozyme fitness (log ratio)
121 | C86U C88U | 0.0768
122 | U9A G61A | 0.705
123 | G17A G36U C56U | -4.9
124 | A90U U96C C115U | -1.64
125 | C8G G71C | -0.095
126 | G61A C102G | -6.12
127 | C72U G117C | -2.69
128 | C3G G48C C89U U132C | -1.66
129 | C72A A75C | -0.344
130 | A29U C73A C98A | -4.9
131 | C53U U129A | -1.24
132 | C70A U106G | -4.07
133 | G48A C64U | 0.0683
134 | U9C G39C G128C | -1.84
135 | C73G U96G C115G | -3.54
136 | G57U G71A C104A U106C U125A U131C | -3.71
137 | A46U A91G | -1.96
138 | C3A C97A C114U | -5.53
139 | U21C U112A G122C C123U | -0.556
140 | G35A C114G | -5.64
141 | C80A C86G | -5.2
142 | U112G G113A U125C | -2.43
143 | C3A G57A C114U | -4.29
144 | C13A C88U | -2.04

Row | Variant | polymerase ribozyme fitness (log ratio)
145 | G60U A121G | 1.76
146 | C94U U125A | -0.818
147 | G63A G135U | -1.49
148 | U38G G47U G120A U130C | -1.92
149 | C11U C22G C31A C72G C99U C123A | -5.82
150 | C11G A27G G63C G93A | -3.72
151 | C31A C88G | -4.98
152 | C13G C15G A26U C94A C114U | -6.55
153 | C13U G69C U116C G120C | -0.88
154 | U21A G60A A74U A100U U125G U132A | -0.987
155 | C15G G48U A50G G63C U106A U109C | -6.17
156 | U92A A111G U129C U132C | -3.54
157 | G77A A121U | 1.88
158 | G113A U125C | -1.17
159 | G60A G113A | -0.894
160 | U9C G120C | 1.46
161 | U7C C13U G60A A105U | -1.71
162 | A16G G61C A84C G117A A119G | -2.13
163 | U59G A74G | -0.396
164 | C12U A16G U106A | 0.278
165 | C34A C56A C104U | -2.11
166 | U7G C49U C80U A111C | -4.73
167 | C73A G128A | -2.12

Reference: the RNAGym collection of RNA variant scans (doi:10.1073/pnas.2313332121)
